Data reported in publication PMC11009388, “Insights into the molecular mechanism of yellow cuticle coloration by a chitin-binding carotenoprotein in gregarious locusts” (Communications Biology, 2024).
“And” between values parts separate entries of the source, which are not always exact repeats. Equal entries are not always repeated. Each block holds one molecule with its values, some of them ahead of it.

Experiments:
[1] = target: native BBP extracted from the yellow locust cuticle (Schistocerca gregaria (endogenous in locust cuticle)); assay: SEC; clarified soluble extract of yellow locust cuticle on Superdex 200 Increase 5/150, 0.45 mL/min; 20 mM Tris-HCl pH 7.5, 150 mM NaCl, 3 mM βME, 0.5 mM PMSF; apparent Mw from column calibration
[2] = target: T1, BBP (β-carotene-binding protein), recombinant (Schistocerca gregaria, UniProt A0A6N3ISN1); assay: HPLC of bound carotenoid, absorbance, CD and Raman spectra, SEC of holoprotein; conditions: reconstituted in β-carotene-producing E. coli; 20 mM Tris-HCl pH 7.5, 150 mM NaCl
T1 construct: gene YPT; mature form residues 23-273, signal peptide removed; N-terminal His6 tag cleaved by 3C leaving GSHM; E. coli C41(DE3) making carotenoids
T1 sequence (A0A6N3ISN1 23-273): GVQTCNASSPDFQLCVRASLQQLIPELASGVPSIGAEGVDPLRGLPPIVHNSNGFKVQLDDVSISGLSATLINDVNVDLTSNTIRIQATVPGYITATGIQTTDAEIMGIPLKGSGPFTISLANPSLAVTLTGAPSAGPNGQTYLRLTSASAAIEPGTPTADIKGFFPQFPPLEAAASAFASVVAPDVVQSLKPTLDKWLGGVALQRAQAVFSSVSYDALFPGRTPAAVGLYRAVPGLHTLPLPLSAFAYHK

[3] = target: T1, BBP (β-carotene-binding protein), recombinant; assay: HPLC of carotenoids bound to purified protein; conditions: late induction in ECH/CAN-producing E. coli; competing with β-carotene in membranes
[4] = target: recombinant β-carotene-binding protein from Schistocerca gregaria in complex with β-carotene, BBP(βCar) (Schistocerca gregaria); assay: cross-linking; glutaraldehyde 0.23%, 15 min at 30 °C, 20 mM HEPES pH 7.5, 150 mM NaCl; analysed by SDS-PAGE
[5] = target: recombinant β-carotene-binding protein from Schistocerca gregaria in complex with β-carotene, BBP(βCar) (Schistocerca gregaria); assay: SEC; spectrochromatography on Superdex 200 Increase 5/150, 0.45 mL/min; 20 mM Tris-HCl pH 7.5, 150 mM NaCl, 3 mM βME, also with 2 M urea or 0.05% DOC, or 10 mM MES pH 6.0, 150 mM NaCl; apparent Mw from column calibration
[6] = target: recombinant β-carotene-binding protein from Schistocerca gregaria in complex with β-carotene, BBP(βCar) (Schistocerca gregaria); assay: SEC-MALS; Superdex 200 Increase 10/300, 20 mM Tris pH 7.5, 150 mM NaCl, 3 mM βME, 0.8 mL/min; self-association of BBP(βCar)
BmCBP = target: T2, BmCBP (Bombyx mori, UniProt Q8MYA9); assay: induced UV/Vis circular dichroism, absorbance spectrum, SECmelt; format: binding; conditions: 20 mM phosphate pH 7.2 (CD); sample has excess apoform
T2 construct: residues 68-297 (START domain), His-tag cleaved, preparation from previous work
T2 sequence (Q8MYA9 68-297): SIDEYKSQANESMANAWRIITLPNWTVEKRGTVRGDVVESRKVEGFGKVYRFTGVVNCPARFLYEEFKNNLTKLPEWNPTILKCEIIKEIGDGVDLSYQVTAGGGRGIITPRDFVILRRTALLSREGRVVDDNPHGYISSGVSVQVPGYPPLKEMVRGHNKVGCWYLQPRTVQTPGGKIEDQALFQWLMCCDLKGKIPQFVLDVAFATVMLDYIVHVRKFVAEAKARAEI

- stoichiometry N [1]: 2
Molecule: native BBP extracted from the yellow locust cuticle (natural protein)

Molecule: CC1=C(/C=C/C(C)=C/C=C/C(C)=C/C=C/C=C(C)/C=C/C=C(C)/C=C/C2=C(C)CCCC2(C)C)C(C)(C)CCC1 [βCar, β-carotene]
- HPLC of bound carotenoid, absorbance, CD and Raman spectra, SEC of holoprotein [2]: recombinant BBP, like native BBP from locusts, indeed contains almost exclusively β-carotene

Molecule: CC1=C(/C=C/C(C)=C/C=C/C(C)=C/C=C/C=C(C)/C=C/C=C(C)/C=C/C2=C(C)C(=O)CCC2(C)C)C(C)(C)CCC1=O [CAN, canthaxanthin]
- HPLC of carotenoids bound to purified protein [3]: also exhibits capacity to bind ECH and, less efficiently, CAN

Molecule: CC1=C(/C=C/C(C)=C/C=C/C(C)=C/C=C/C=C(C)/C=C/C=C(C)/C=C/C2=C(C)C(=O)CCC2(C)C)C(C)(C)CCC1 [ECH, echinenone]
- HPLC of carotenoids bound to purified protein [3]: BBP avidly binds β-carotene but also exhibits capacity to bind ECH

- stoichiometry N [4]: 4 and 2
- stoichiometry N [5]: 2 and 4
- stoichiometry N [6]: 2
Molecule: recombinant β-carotene-binding protein from Schistocerca gregaria in complex with β-carotene, BBP(βCar) (from UniProt A0A6N3ISN1 23-273) (natural protein)

Molecule: CC1=C(/C=C/C(C)=C/C=C/C(C)=C/C=C/C=C(C)/C=C/C=C(C)/C=C/C2=C(C)C[C@@H](O)CC2(C)C)C(C)(C)C[C@H](O)C1 [ZEA, zeaxanthin]
- induced UV/Vis circular dichroism, absorbance spectrum, SECmelt (BmCBP): UV/Vis circular dichroism spectrum was distinctly different from that of the BmCBP complex with ZEA
